# Results as given in patent US20240018501A1, “HIGHER PERFORMANCE PROTEASES FOR SCARLESS PEPTIDE TAG REMOVAL” (priority 2017, published 2024).
# Legend:
# LicP = LicP self-cleavage and intermolecular cleavage (SDS-PAGE, MALDI-TOF MS); assay type: biochemical, Bacillus licheniformis ATCC 14580
# Description: Expression and purification of LicP and LicP mutant proteins. E. coli BL21 (DE3) cells were transformed with one of the following plasmids: pRSFDuet-1/LicP-25-433, pRSFDuet-1/LicP-25-433-S376A, pRSFDuet-1/LicP-25-433-H186A, pRSFDuet-1/LicP-25-433-E100A or pRSFDuet-1/LicP-25-433-E100A-E102A, and plated on an LB plate containing 50 mg/L kanamycin. A single colony was picked and grown in 20 mL of LB containing 50 mg/L kanamycin at 37° C. for 12 h and the resulting culture was inoculated into 2 L of LB containing 50 mg/L kanamycin. Cells were cultured at 37° C. until the OD at 600 nm reached 0.5, cooled and IPTG was added to a final concentration of 0.1 mM. The cells were cultured at 18° C. for another 10 h before harvesting. The cell pellet was resuspended on ice in LanP buffer (20 mM HEPES, 1 M NaCl, pH 7.5 at 25° C.) and lysed by homogenization. The lysed sample was centrifuged at 23,700×g for 30 min and the pellet was discarded. […] Protein concentration was quantified by the absorbance at 280 nm. The extinction coefficient for His6-LicP-25-433 was calculated as 46,300 M^−1 cm^−1. […]
# Intermolecular cleavage of His6-LicP-25-433-S376A by His6-LicP-25-433. […] The three reactions were allowed to proceed at room temperature for 0, 2, 4, 7 and 19 h before being stopped by addition of SDS loading buffer and boiling at 95° C. for 10 min and analyzed by SDS-PAGE.
# [1] = Storage and freeze-thaw stability of the proteases; assay type: physicochemical
# Sequence of NisA-NDVNPE-I1L, P13068 (P13068 whole entry, looked up): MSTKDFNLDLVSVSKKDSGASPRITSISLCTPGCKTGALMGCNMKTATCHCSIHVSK
# Sequence of NisA-NDVNPE-I1C, P13068 (P13068 whole entry, looked up): as above
# Sequence of NisA-NDVNPE-I1T, P13068 (P13068 whole entry, looked up): as above
# Sequence of NisA-NDVNPE-I1F, P13068 (P13068 whole entry, looked up): as above
# Sequence of NisA-NDVNPE-I1G, P13068 (P13068 whole entry, looked up): as above
# Sequence of NisA-NDVNPE-I1K, P13068 (P13068 whole entry, looked up): as above
# Sequence of NisA-NDVNPE-I1E, P13068 (P13068 whole entry, looked up): as above
# Sequence of NisA-NDVNPE, P13068 (P13068 whole entry, looked up): as above
# Sequence of NisA-NDVNPE-I1W, P13068 (P13068 whole entry, looked up): as above
molecule,measurement,setting,value
His6-LicP-25-433 (protein) GSSHHHHHHSQDPKEQAGEQYLLLEHVKDKSKLLDTAEQFHIHADVIEEIGFAKVTGEKQKLAPFTKKLAEKVGADVIEKPIANTAVNETESVISGSPAWGLDGILELKEYLWFAAKQTDSYRTYQIERGHPDVKVALIDSGLDLDHPDLKASVNTNGGWNYIDGKPVSGDPTGHGTQTAGMINIIAPDVTITPYQVLDEKGGDSYNIMKAMVDAVNDGHEVINISTGSYTSLDREGKVLMKAYQRAANYAAKHQVLVFSSAGNKGVNLDEMRKTENKVHLPSALKHVVSVGSNMKSNNISPYSNQGREIEFTAPGGYLGETYDQDGMVRVTDLVLTTYPKGKDNTALDQMLNIPKGYSLSYGTSLAAPQVAGTAALVISEYRERHHRKPSAKQVHHILRKSALDLGKPGKDVIYGYGEVRAYQALKMMNKE,"cleavage by LicP, MALDI-TOF MS",DVNPE-Licβ,the 5-residue oligopeptide was successfully removed
same,"intermolecular cleavage of the S376A mutant by wild type LicP, SDS-PAGE, 1:1, 0.1 mg/mL each",His6-LicP-25-433-S376A,"autoprotolysis can take place intermolecularly, albeit slowly"
same,"time-dependent cleavage by LicP, gel-based assay (100 µM peptide, 0.4 µM LicP)",LicA2-D-5A,LicA2-D-5A and LicA2-D-5K are processed much more slowly
same,"time-dependent cleavage by LicP, gel-based assay (100 µM peptide, 0.4 µM LicP)",LicA2-D-5K,LicA2-D-5A and LicA2-D-5K are processed much more slowly
same,"time-dependent cleavage by LicP, gel-based assay (100 µM peptide, 0.4 µM LicP)",LicA2-E-1A,LicA2-E-1A was not a substrate under the assay conditions
same,"time-dependent cleavage by LicP, gel-based assay (100 µM peptide, 0.4 µM LicP)",LicA2-E-1D,even substitution with structurally related amino acids Asp and Gln was not tolerated
same,"time-dependent cleavage by LicP, gel-based assay (100 µM peptide, 0.4 µM LicP)",LicA2-E-1Q,even substitution with structurally related amino acids Asp and Gln was not tolerated
same,"time-dependent cleavage by LicP, gel-based assay (100 µM peptide, 0.4 µM LicP)",LicA2-N-3A,alanine substitution at both sites did not alter the processing efficiency of LicP significantly
same,"time-dependent cleavage by LicP, gel-based assay (100 µM peptide, 0.4 µM LicP)",LicA2-P-2A,alanine substitution at both sites did not alter the processing efficiency of LicP significantly
same,"time-dependent cleavage by LicP, gel-based assay (100 µM peptide, 0.4 µM LicP)",LicA2-V-4A,still accepted by LicP with a slightly reduced cleavage efficiency
same,"time-dependent cleavage by LicP, gel-based assay (100 µM peptide, 0.4 µM LicP)",LicA2-V-4F,LicA2-V-4F was no longer processed
same,"time-dependent cleavage by LicP, gel-based assay (100 µM peptide, 0.4 µM LicP)",LicA2-V-4L,still accepted by LicP with a slightly reduced cleavage efficiency
same,"Complete Reaction? (LicP cleavage; [LicP] 1 µM, [Substrate] 290 µM, 6 h at RT)",Linear LicA2,Y
same,"Complete Reaction? (LicP cleavage; [LicP] 0.5 µM, [Substrate] 50 µM, 12 h at 4 C)",MBP-BamL,Y
same,"removal of the MBP tag, SDS-PAGE time course, against TEV protease",MBP-BamL,LicP was capable of removing the MBP-tag in front of the BamL protein with similar efficiency as TEV
same,"Complete Reaction? (LicP cleavage; [LicP] 21 nM, [Substrate] 17 µM, 10 min at RT)",Modified LicA2,Y
same,"rate of cleavage in a competitive MALDI-TOF MS assay (21 nM LicP, 17 µM each of modified LicA2 and linear G-LicA2)",Modified LicA2,"complete consumption of modified LicA2 peptide within 10 min, corresponding to a rate of at least 80 min^-1"
same,"Complete Reaction? (LicP cleavage; [LicP] 2 µM, [Substrate] 65 µM, 30 h at RT)","NisA-NDVNPE, P13068",Y
same,"removal of the NisA leader peptide by LicP, MALDI-TOF MS","NisA-NDVNPE, P13068","in front of a Gly or Ile residue was slightly less efficient, but complete consumption of precursor peptides was still observed"
same,"Complete Reaction? (LicP cleavage; [LicP] 0.2 µM, [Substrate] 65 µM, 20 h at RT)","NisA-NDVNPE-I1C, P13068",Y
same,"removal of the NisA leader peptide by LicP, MALDI-TOF MS","NisA-NDVNPE-I1C, P13068",The highest proteolytic efficiency was obtained when the P1′ position was occupied by Thr or Cys
same,"Complete Reaction? (LicP cleavage; [LicP] 2 µM, [Substrate] 65 µM, 30 h at RT)","NisA-NDVNPE-I1E, P13068",N
same,"removal of the NisA leader peptide by LicP, MALDI-TOF MS","NisA-NDVNPE-I1E, P13068",Peptides with Glu or Phe in the P1′ position turned out to be poor substrates
same,"Complete Reaction? (LicP cleavage; [LicP] 2 µM, [Substrate] 65 µM, 30 h at RT)","NisA-NDVNPE-I1F, P13068",N
same,"removal of the NisA leader peptide by LicP, MALDI-TOF MS","NisA-NDVNPE-I1F, P13068",Peptides with Glu or Phe in the P1′ position turned out to be poor substrates
same,"Complete Reaction? (LicP cleavage; [LicP] 2 µM, [Substrate] 65 µM, 30 h at RT)","NisA-NDVNPE-I1G, P13068",Y
same,"removal of the NisA leader peptide by LicP, MALDI-TOF MS","NisA-NDVNPE-I1G, P13068","in front of a Gly or Ile residue was slightly less efficient, but complete consumption of precursor peptides was still observed"
same,"Complete Reaction? (LicP cleavage; [LicP] 2 µM, [Substrate] 65 µM, 30 h at RT)","NisA-NDVNPE-I1K, P13068",N
same,"removal of the NisA leader peptide by LicP, MALDI-TOF MS","NisA-NDVNPE-I1K, P13068","also accepted by LicP, although some substrate still remained after 30 hours of incubation"
same,"Complete Reaction? (LicP cleavage; [LicP] 2 µM, [Substrate] 65 µM, 30 h at RT)","NisA-NDVNPE-I1L, P13068",N
same,"removal of the NisA leader peptide by LicP, MALDI-TOF MS","NisA-NDVNPE-I1L, P13068","also accepted by LicP, although some substrate still remained after 30 hours of incubation"
same,"Complete Reaction? (LicP cleavage; [LicP] 0.2 µM, [Substrate] 65 µM, 20 h at RT)","NisA-NDVNPE-I1T, P13068",Y
same,"removal of the NisA leader peptide by LicP, MALDI-TOF MS","NisA-NDVNPE-I1T, P13068",The highest proteolytic efficiency was obtained when the P1′ position was occupied by Thr or Cys
same,"Complete Reaction? (LicP cleavage; [LicP] 2 µM, [Substrate] 65 µM, 30 h at RT)","NisA-NDVNPE-I1W, P13068",N
same,"removal of the NisA leader peptide by LicP, MALDI-TOF MS","NisA-NDVNPE-I1W, P13068","also accepted by LicP, although some substrate still remained after 30 hours of incubation"
same,"Complete Reaction? (LicP cleavage; [LicP] 0.2 µM, [Substrate] 180 µM, 4 h at RT)",ProcA1.7-NDVNPE,Y
same,"competitive MALDI-TOF MS assay (21 nM LicP, 17 µM each of modified LicA2 and linear G-LicA2)",linear G-LicA2,the cleavage of linear LicA2 only started after the modified LicA2 had been consumed and required more enzyme to be completed
same,LicP self-cleavage during expression,LicP,a cleavage event occurred
same,activity after multiple rounds of freeze-thaw,[1],no obvious decrease in activity
same,activity after storage,[1]; 12 weeks at 4° C,persistent activity
